These results are taken from publication PMC10841013.

The target of the series is T1, rArgR (Streptococcus suis CZ130302) (UniProt Q3C167).
T1 sequence: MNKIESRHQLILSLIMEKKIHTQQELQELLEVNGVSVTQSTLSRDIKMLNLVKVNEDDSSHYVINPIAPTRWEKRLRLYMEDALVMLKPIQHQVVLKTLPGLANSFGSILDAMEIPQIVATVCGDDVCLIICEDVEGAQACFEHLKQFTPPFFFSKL
Put plainly: EMSA. On the technique in general: In EMSA bound probe runs differently from free probe, usually more slowly.

As to “TGGATGGTTTGACATGATCTGTCCTCCTTGTAGATTTATACATGATGGGAAACGAGGAGGACCGTACGCTTTCCTGCCTCTCATTTCCTCTTTACATCCATAGTTTAACAGAGCAAAAAAACAAAAACTTGAAAACGCTCGCATTTATGTTGAGAAATTCTTCACATTTTCAACCTTATTTATAAATAATTATCGATTATATCGCCTATATTATGCATAATTCTTTCTATTATATCATTATGTGAATTTT (double strand) [arcA promoter 250 bp]”, the binding result is reported as “binds”.
